Results on 21 substances are retold here after PMC10333884, “Large‐scale phosphomimetic screening identifies phospho‐modulated motif‐based protein interactions” (Molecular Systems Biology, 2023).

Values joined by “and” are separate entries in the source; they are usually repeats but may differ in a detail not shown here. Equal values may be shown once.

Experiment [1] deals with GABARAPL2 (human) (UniProt P60520). The experiment in a line: fluorescence polarisation.
A further experiment concerns the target MAP1LC3A (human). The experiment in a line: fluorescence polarisation; displacement of a FITC-labelled probe peptide (5 nM in the measurement) from the protein domain (1-2 fold over the probe's KD) by a dilution series of unlabelled peptide; room temperature; 50 mM sodium phosphate pH 7.4; KD calculated from the displacement curve; for KPNA4 ARM one probe for each pocket.

The target in a further experiment is MAP1LC3B (human) (UniProt Q9GZQ8). The description is as above.
The target in experiment [2] is KPNA4 ARM ARM domain (UniProt O00629). The experiment in a line: FP displacement, major-pocket FITC probe. As to conditions: reference: unphosphorylated peptide.
The target in experiment [3] is Clathrin N-terminal domain (NTD) (human) (UniProt Q00610). The experiment in a line: fluorescence polarisation; displacement of a FITC-labelled probe peptide (5 nM in the measurement) from the protein domain (1-2 fold over the probe's KD) by a dilution series of unlabelled peptide; room temperature; 50 mM sodium phosphate pH 7.4; KD calculated from the displacement curve; for KPNA4 ARM one probe for each pocket.

For experiment [4] the target is unchanged. As to the kind of experiment: ITC; iTC200; peptide titrated against the protein domain in approximately 10-fold excess, 16 injections; 50 mM sodium phosphate buffer pH 7.4, 1 mM DTT; constants of single runs and their average. (In ITC the heat of successive injections is recorded.)
Experiment [5] shares this target. As to the kind of experiment: fluorescence polarisation.
Experiment [6] has the same target. The experiment in a line: ITC; peptide titrated against protein domain in about 10-fold excess, 16 injections; 50 mM sodium phosphate pH 7.4, 1 mM DTT.
For experiment [7] the target is unchanged. The experiment in a line: fluorescence polarisation; displacement of a FITC-labelled probe peptide (5 nM in the measurement) from the protein domain (1-2 fold over the probe's KD) by a dilution series of unlabelled peptide; room temperature; 50 mM sodium phosphate pH 7.4; KD calculated from the displacement curve; for KPNA4 ARM one probe for each pocket. The source holds these as a separate data set.

In experiment [8] the target is KPNA4 ARM ARM domain (UniProt O00629). The experiment in a line: FP displacement, minor-pocket FITC probe. As to conditions: reference: unphosphorylated peptide.
The next experiment deals with GGA1 VHS domain (human) (UniProt Q9UJY5). As to the kind of experiment: ITC; iTC200; peptide titrated against the protein domain in approximately 10-fold excess, 16 injections; 50 mM sodium phosphate buffer pH 7.4, 1 mM DTT; constants of single runs and their average.
For a further experiment, the target named is MAP1LC3B ATG8 (human). Described as above.
The target in experiment [9] is GABARAPL2 (human) (UniProt P60520). As to the kind of experiment: fluorescence polarisation; displacement of a FITC-labelled probe peptide (5 nM in the measurement) from the protein domain (1-2 fold over the probe's KD) by a dilution series of unlabelled peptide; room temperature; 50 mM sodium phosphate pH 7.4; KD calculated from the displacement curve; for KPNA4 ARM one probe for each pocket.

Another experiment deals with 14‐3‐3 theta (UniProt P27348). As to the kind of experiment: FP displacement of FITC probe peptide. As to conditions: reference: unphosphorylated peptide; sites S375.

Chain of GABARAPL2 (human) (P60520 whole entry, the tested form may be a part): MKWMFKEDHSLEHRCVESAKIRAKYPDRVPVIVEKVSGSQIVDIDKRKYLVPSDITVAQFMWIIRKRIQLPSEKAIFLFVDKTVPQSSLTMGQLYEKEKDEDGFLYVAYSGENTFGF
Chain of GGA1 VHS domain (human) (Q9UJY5 17-147): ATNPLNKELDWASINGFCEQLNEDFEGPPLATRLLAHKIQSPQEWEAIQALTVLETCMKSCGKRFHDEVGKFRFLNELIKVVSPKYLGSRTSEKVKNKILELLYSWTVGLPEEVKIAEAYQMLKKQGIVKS
Chain of Clathrin N-terminal domain (NTD) (human) (Q00610 1-364): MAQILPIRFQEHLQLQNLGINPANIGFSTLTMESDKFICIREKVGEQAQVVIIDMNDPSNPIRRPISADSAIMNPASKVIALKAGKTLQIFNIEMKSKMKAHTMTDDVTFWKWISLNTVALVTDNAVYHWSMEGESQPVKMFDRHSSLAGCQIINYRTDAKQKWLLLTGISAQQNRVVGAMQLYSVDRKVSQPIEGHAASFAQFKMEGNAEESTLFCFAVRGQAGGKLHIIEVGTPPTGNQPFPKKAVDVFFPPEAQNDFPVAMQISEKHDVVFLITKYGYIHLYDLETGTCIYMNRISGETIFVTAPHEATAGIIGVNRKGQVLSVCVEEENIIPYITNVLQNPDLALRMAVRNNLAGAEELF

One may read the Kd as the free concentration of one partner at which half of the binding sites on the other are occupied at equilibrium, for simple one-to-one binding. Consider “ATG4C_(444–458), phosphomimetic (E) (from UniProt Q96DT6 444-458) (peptide)”, for which the values for the Kd with GABARAPL2 (human) [1], in the experiment with MAP1LC3A (human) and with MAP1LC3B (human) were 1.8 µM, 3.1 µM and 4.6 µM, respectively.

With “ATG4C_(444–458), wild‐type (from UniProt Q96DT6 444-458) (peptide)”, the Kd was 0.8 µM with GABARAPL2 (human) [1], 5.2 µM in the experiment with MAP1LC3A (human) and 7.1 µM with MAP1LC3B (human).

In the case of “CDC25A 114-125 (from UniProt P30304) pS116 peptide”, the KD result with KPNA4 ARM ARM domain [2] (sites S116) is “stronger; reference 8.8 ± 0.2”.

Turning to “GTSE1_(692–707) peptide, unphosphorylated”, the Kd in experiment [3] was 100 µM.

By stoichiometry N is commonly meant the number of molecules, sites or subunits per partner or assembly. On to “HURP 832-846 peptide, phosphomimetic (S839 to glutamate) (from UniProt Q15398 832-846)”, for which the stoichiometry N in experiment [4] was 0.552 and 0.557 and 0.458.

In turn, “HURP_(832–846), phosphomimetic (E) (from UniProt Q15398 832-846) (peptide)” came in with a Kd in experiment [5] of 23 µM.

Take “HURP_(832–846), wild‐type (from UniProt Q15398 832-846) (peptide)”: the Kd in [6] is 250 µM; in experiment [3], 134 µM; in experiment [7], 150 µM.

Take “RANBP3 114-129 (from UniProt Q9H6Z4) pS125 peptide (p+6)”: the KD result with KPNA4 ARM ARM domain [2] (sites S125) is “same; reference 0.15 ± 0.01”; with KPNA4 ARM ARM domain [8] (sites S125) it was “stronger; reference 68 ± 4”.

Consider “RANBP3 114-129 (from UniProt Q9H6Z4) pT124 peptide (p+5)”, for which the KD entry with KPNA4 ARM ARM domain [2] (sites T124) is recorded as “weaker; reference 0.15 ± 0.01”.

“RNF11 6-21 peptide, phosphomimetic (from UniProt Q9Y3C5 6-21)”: the stoichiometry N with GGA1 VHS domain (human) was 0.97 and 0.905.

In the case of “RNF11 6-21 peptide, phosphorylated (from UniProt Q9Y3C5 6-21)”, the stoichiometry N in the experiment with GGA1 VHS domain (human) is 0.722 and 0.731.

For “RNF11 6-21 peptide, wild-type (from UniProt Q9Y3C5 6-21)”, the stoichiometry N with GGA1 VHS domain (human) turned out to be 0.8.

As for “SQSTM1 258-272 (from UniProt Q13501) phosphorylated peptide”, the KD result is “weaker; reference 0.24 ± 0.04” with KPNA4 ARM ARM domain [2] (sites S266) and “weaker; reference 14.0 ± 0.7” with KPNA4 ARM ARM domain [8] (sites S266).

Regarding “TBK1 164-179 peptide, phosphorylated (from UniProt Q9UHD2 164-179)”, the stoichiometry N in the experiment with MAP1LC3B ATG8 (human) is 1.09 and 1.17 and 0.932.

With “TBK1_(164–179), phosphomimetic (E) (from UniProt Q9UHD2 164-179) (peptide)”, the figures for the Kd with GABARAPL2 (human) [9] and in the experiment with MAP1LC3B (human) were 12.4 µM and 2.1 µM, respectively.

For the substance “TBK1_(164–179), phosphorylated (pS) (from UniProt Q9UHD2 164-179) (peptide)”, the Kd with GABARAPL2 (human) [9] is 2.8 µM.

Take “TBK1_(164–179), wild‐type (from UniProt Q9UHD2 164-179) (peptide)”: the values for the Kd in the experiment with GABARAPL2 (human) [9] and with MAP1LC3B (human) were 19 µM and 10.5 µM, respectively.

For the substance “TOM1 366-382 (from UniProt O60784) pS375 peptide”, the “binding against the reference” value with 14‐3‐3 theta is “gained”.

For “TPD52L2_(91–106), phosphomimetic (E) (from UniProt O43399 91-106) (peptide)”, the dissociation constant Kd with MAP1LC3A (human) is 78 µM; with MAP1LC3B (human), 225 µM.

For the substance “pS839 HURP_(826–846) peptide (from UniProt Q15398 826-846)”, in experiment [3], the Kd is below 3 µM.

With “pS839 HURP_(832–846) (from UniProt Q15398 832-846) (peptide)”, the figures for the Kd in [6] and in [3] were 5 µM and below 3 µM, respectively.
